# Publication PMC4498904, “Mutagenesis Study Reveals the Rim of Catalytic Entry Site of HDAC4 and -5 as the Major Binding Surface of SMRT Corepressor” (PLoS ONE, 2015)
# B1: KGC-HDAC4c (C-terminal portion of Kusabira Green protein fused with HDAC4c), wild type [human] / KGN-SRD3c (N-terminal portion of Kusabira Green protein fused with SRD3c) [human] (parent)
# chain 1: PRFTTGLVYDTLMLKHQCTCGSSSSHPEHAGRIQSIWSRLQETGLRGKCECIRGRKATLEELQTVHSEAHTLLYGTNPLNRQKLDSKKLLGSLASVFVRLPCGGVGVDSDTIWNEVHSAGAARLAVGCVVELVFKVATGELKNGFAVVRPPGHHAEESTPMGFCYFNSVAVAAKLLQQRLSVSKILIVDWDVHHGNGTQQAFYSDPSVLYMSLHRYDDGNFFPGSGAPDEVGTGPGVGFNVNMAFTGGLDPPMGDAEYLAAFRTVVMPIASEFAPDVVLVSSGFDAVEGHPTPLGGYNLSARCFGYLTKQLMGLAGGRIVLALEGGHDLTAICDASEACVSALLGNELDPLPEKVLQQRPNANAVRSMEKVMEIHSKYWRCLQRTTSTAGRSLIEAQTCENEEAET
# chain 2: EGGMSVTQCSKEDGRSSSGPPHETAAPKRTYDMMEGRVGRAISSASIEGLMGRAIPPERHSPHHLKEQHHIRGSITQGIPRSYVEAQEDYLRREAKLLKREGTPPPPPPSRDLTEAYKTQALGPLKLKPAHEGLVATVKEAGRSIHEIPREELRHTPELPLAPRPLKEGSITQGTPLKYDTGASTTGSKKHDVRSLIGSPGRTFPPVHPLDVMADARALERACY
# B2: KGC-HDAC5c (C-terminal portion of Kusabira Green protein fused with HDAC5c), wild type [human] / KGN-SRD3c (N-terminal portion of Kusabira Green protein fused with SRD3c) [human] (parent)
# chain 1: LFTTGVVYDTFMLKHQCMCGNTHVHPEHAGRIQSIWSRLQETGLLSKCERIRGRKATLDEIQTVHSEYHTLLYGTSPLNRQKLDSKKLLGPISQKMYAVLPCGGIGVDSDTVWNEMHSSSAVRMAVGCLLELAFKVAAGELKNGFAIIRPPGHHAEESTAMGFCFFNSVAITAKLLQQKLNVGKVLIVDWDIHHGNGTQQAFYNDPSVLYISLHRYDNGNFFPGSGAPEEVGGGPGVGYNVNVAWTGGVDPPIGDVEYLTAFRTVVMPIAHEFSPDVVLVSAGFDAVEGHLSPLGGYSVTARCFGHLTRQLMTLAGGRVVLALEGGHDLTAICDASEACVSALLSVELQPLDEAVLQQKPNINAVATLEKVIEIQSKHWSCVQKFAAGLGRSLREAQAGETEEAETVS
# chain 2: B1 chain 2
# Variants of: B1
# Experiment: BiFC assay (fluorescence spectrophotometer)
# Conditions: HEK293 cells, KGN-SRD3c (1 μg) and KGC-HDAC4c mutant (1 μg), 48 hours of transfection, whole cell lysates, parent: 8, read off a plot
row,Variant,response
1,chain 1 PRFTTGLVYDTLMLKHQCTYGSSSSHPEHAGRIQSIWSRLQETGLRGKCECIRGRKATLEELQTVHSEAHTLLYGTNPLNRQKLDSKKLLGSLASVFVRLPCGGVGVDSDTIWNEVHSAGAARLAVGCVVELVFKVATGELKNGFAVVRPPGHHAEESTPMGFCYFNSVAVAAKLLQQRLSVSKILIVDWDVHHGNGTQQAFYSDPSVLYMSLHRYDDGNFFPGSGAPDEVGTGPGVGFNVNMAFTGGLDPPMGDAEYLAAFRTVVMPIASEFAPDVVLVSSGFDAVEGHPTPLGGYNLSARCFGYLTKQLMGLAGGRIVLALEGGHDLTAICDASEACVSALLGNELDPLPEKVLQQRPNANAVRSMEKVMEIHSKYWRCLQRTTSTAGRSLIEAQTCENEEAET [chain 1 C20Y],4.1 RFU
2,chain 1 PRFTTGLVYDTLMLKHQYTCGSSSSHPEHAGRIQSIWSRLQETGLRGKCECIRGRKATLEELQTVHSEAHTLLYGTNPLNRQKLDSKKLLGSLASVFVRLPCGGVGVDSDTIWNEVHSAGAARLAVGCVVELVFKVATGELKNGFAVVRPPGHHAEESTPMGFCYFNSVAVAAKLLQQRLSVSKILIVDWDVHHGNGTQQAFYSDPSVLYMSLHRYDDGNFFPGSGAPDEVGTGPGVGFNVNMAFTGGLDPPMGDAEYLAAFRTVVMPIASEFAPDVVLVSSGFDAVEGHPTPLGGYNLSARCFGYLTKQLMGLAGGRIVLALEGGHDLTAICDASEACVSALLGNELDPLPEKVLQQRPNANAVRSMEKVMEIHSKYWRCLQRTTSTAGRSLIEAQTCENEEAET [chain 1 C18Y],5 RFU
3,chain 1 PRFTTGLVYDTLMLKHQCTCGSSSSHPEHAGRIQSIWSRLQETGLRGKCECIRGRKATLEELQTVHSEAHTLLYGTNPLNRQKLDSKKLLGSLASVFVRLPYGGVGVDSDTIWNEVHSAGAARLAVGCVVELVFKVATGELKNGFAVVRPPGHHAEESTPMGFCYFNSVAVAAKLLQQRLSVSKILIVDWDVHHGNGTQQAFYSDPSVLYMSLHRYDDGNFFPGSGAPDEVGTGPGVGFNVNMAFTGGLDPPMGDAEYLAAFRTVVMPIASEFAPDVVLVSSGFDAVEGHPTPLGGYNLSARCFGYLTKQLMGLAGGRIVLALEGGHDLTAICDASEACVSALLGNELDPLPEKVLQQRPNANAVRSMEKVMEIHSKYWRCLQRTTSTAGRSLIEAQTCENEEAET [chain 1 C102Y],4.5 RFU
4,chain 1 PRFTTGLVYDTLMLKHQCTCGSSSSHPEHAGRIQSIWSRLQETGLRGKCECIRGRKATLEELQTVHSEAHTLLYGTNPLNRQKLDSKKLLGSLASVFVRLPCGGVGVDSDTIWNEVHSAGAARLAVGCVVELVFKVATGELKNGFAVVRPPGHHAEESTPMGFCYFNSVAVAAKLLQQRLSVSKILIVDWDVLHGNGTQQAFYSDPSVLYMSLHRYDDGNFFPGSGAPDEVGTGPGVGFNVNMAFTGGLDPPMGDAEYLAAFRTVVMPIASEFAPDVVLVSSGFDAVEGHPTPLGGYNLSARCFGYLTKQLMGLAGGRIVLALEGGHDLTAICDASEACVSALLGNELDPLPEKVLQQRPNANAVRSMEKVMEIHSKYWRCLQRTTSTAGRSLIEAQTCENEEAET [chain 1 H193L],4.3 RFU

# Variants of: B2
# Experiment: BiFC assay (fluorescence spectrophotometer)
# Conditions: HEK293 cells, KGN-SRD3c (1 μg) and KGC-HDAC5c mutant (1 μg), 48 hours of transfection, whole cell lysates, parent: 9.3, read off a plot
row,Variant,response
1,chain 1 LFTTGVVYDTFMLKHQCMCGNTHVHPEHAGRIQSIWSRLQETGLLSKCERIRGRKATLDEIQTVHSEYHTLLYGTSPLNRQKLDSKKLLGPISQKMYAVLPYGGIGVDSDTVWNEMHSSSAVRMAVGCLLELAFKVAAGELKNGFAIIRPPGHHAEESTAMGFCFFNSVAITAKLLQQKLNVGKVLIVDWDIHHGNGTQQAFYNDPSVLYISLHRYDNGNFFPGSGAPEEVGGGPGVGYNVNVAWTGGVDPPIGDVEYLTAFRTVVMPIAHEFSPDVVLVSAGFDAVEGHLSPLGGYSVTARCFGHLTRQLMTLAGGRVVLALEGGHDLTAICDASEACVSALLSVELQPLDEAVLQQKPNINAVATLEKVIEIQSKHWSCVQKFAAGLGRSLREAQAGETEEAETVS [chain 1 C102Y],4.7 RFU
2,chain 1 LFTTGVVYDTFMLKHQCMCGNTHVHPEHAGRIQSIWSRLQETGLLSKCERIRGRKATLDEIQTVHSEYHTLLYGTSPLNRQKLDSKKLLGPISQKMYAVLPCGGIGVDSDTVWNEMHSSSAVRMAVGCLLELAFKVAAGELKNGFAIIRPPGHHAEESTAMGFCFFNSVAITAKLLQQKLNVGKVLIVDWDIRHGNGTQQAFYNDPSVLYISLHRYDNGNFFPGSGAPEEVGGGPGVGYNVNVAWTGGVDPPIGDVEYLTAFRTVVMPIAHEFSPDVVLVSAGFDAVEGHLSPLGGYSVTARCFGHLTRQLMTLAGGRVVLALEGGHDLTAICDASEACVSALLSVELQPLDEAVLQQKPNINAVATLEKVIEIQSKHWSCVQKFAAGLGRSLREAQAGETEEAETVS [chain 1 H193R],4 RFU
3,chain 1 LFTTGVVYDTFMLKHQWMCGNTHVHPEHAGRIQSIWSRLQETGLLSKCERIRGRKATLDEIQTVHSEYHTLLYGTSPLNRQKLDSKKLLGPISQKMYAVLPCGGIGVDSDTVWNEMHSSSAVRMAVGCLLELAFKVAAGELKNGFAIIRPPGHHAEESTAMGFCFFNSVAITAKLLQQKLNVGKVLIVDWDIHHGNGTQQAFYNDPSVLYISLHRYDNGNFFPGSGAPEEVGGGPGVGYNVNVAWTGGVDPPIGDVEYLTAFRTVVMPIAHEFSPDVVLVSAGFDAVEGHLSPLGGYSVTARCFGHLTRQLMTLAGGRVVLALEGGHDLTAICDASEACVSALLSVELQPLDEAVLQQKPNINAVATLEKVIEIQSKHWSCVQKFAAGLGRSLREAQAGETEEAETVS [chain 1 C17W],4.4 RFU
